Source: PMC9930725 (Nature, 2022)

B1: PhyB N908 fragment (domain or fragment, Arabidopsis thaliana, UniProt P14713 1-908, looked up)
chain: MVSGVGGSGGGRGGGRGGEEEPSSSHTPNNRRGGEQAQSSGTKSLRPRSNTESMSKAIQQYTVDARLHAVFEQSGESGKSFDYSQSLKTTTYGSSVPEQQITAYLSRIQRGGYIQPFGCMIAVDESSFRIIGYSENAREMLGIMPQSVPTLEKPEILAMGTDVRSLFTSSSSILLERAFVAREITLLNPVWIHSKNTGKPFYAILHRIDVGVVIDLEPARTEDPALSIAGAVQSQKLAVRAISQLQALPGGDIKLLCDTVVESVRDLTGYDRVMVYKFHEDEHGEVVAESKRDDLEPYIGLHYPATDIPQASRFLFKQNRVRMIVDCNATPVLVVQDDRLTQSMCLVGSTLRAPHGCHSQYMANMGSIASLAMAVIINGNEDDGSNVASGRSSMRLWGLVVCHHTSSRCIPFPLRYACEFLMQAFGLQLNMELQLALQMSEKRVLRTQTLLCDMLLRDSPAGIVTQSPSIMDLVKCDGAAFLYHGKYYPLGVAPSEVQIKDVVEWLLANHADSTGLSTDSLGDAGYPGAAALGDAVCGMAVAYITKRDFLFWFRSHTAKEIKWGGAKHHPEDKDDGQRMHPRSSFQAFLEVVKSRSQPWETAEMDAIHSLQLILRDSFKESEAAMNSKVVDGVVQPCRDMAGEQGIDELGAVAREMVRLIETATVPIFAVDAGGCINGWNAKIAELTGLSVEEAMGKSLVSDLIYKENEATVNKLLSRALRGDEEKNVEVKLKTFSPELQGKAVFVVVNACSSKDYLNNIVGVCFVGQDVTSQKIVMDKFINIQGDYKAIVHSPNPLIPPIFAADENTCCLEWNMAMEKLTGWSRSEVIGKMIVGEVFGSCCMLKGPDALTKFMIVLHNAIGGQDTDKFPFPFFDRNGKFVQALLTANKRVSLEGKVIGAFCFLQIPS
modifications: phytochromobilin (PΦB) bound
B2: PhyB N908(L427A) (domain or fragment, Arabidopsis thaliana, UniProt P14713 1-908, looked up)
chain: MVSGVGGSGGGRGGGRGGEEEPSSSHTPNNRRGGEQAQSSGTKSLRPRSNTESMSKAIQQYTVDARLHAVFEQSGESGKSFDYSQSLKTTTYGSSVPEQQITAYLSRIQRGGYIQPFGCMIAVDESSFRIIGYSENAREMLGIMPQSVPTLEKPEILAMGTDVRSLFTSSSSILLERAFVAREITLLNPVWIHSKNTGKPFYAILHRIDVGVVIDLEPARTEDPALSIAGAVQSQKLAVRAISQLQALPGGDIKLLCDTVVESVRDLTGYDRVMVYKFHEDEHGEVVAESKRDDLEPYIGLHYPATDIPQASRFLFKQNRVRMIVDCNATPVLVVQDDRLTQSMCLVGSTLRAPHGCHSQYMANMGSIASLAMAVIINGNEDDGSNVASGRSSMRLWGLVVCHHTSSRCIPFPLRYACEFLMQAFGAQLNMELQLALQMSEKRVLRTQTLLCDMLLRDSPAGIVTQSPSIMDLVKCDGAAFLYHGKYYPLGVAPSEVQIKDVVEWLLANHADSTGLSTDSLGDAGYPGAAALGDAVCGMAVAYITKRDFLFWFRSHTAKEIKWGGAKHHPEDKDDGQRMHPRSSFQAFLEVVKSRSQPWETAEMDAIHSLQLILRDSFKESEAAMNSKVVDGVVQPCRDMAGEQGIDELGAVAREMVRLIETATVPIFAVDAGGCINGWNAKIAELTGLSVEEAMGKSLVSDLIYKENEATVNKLLSRALRGDEEKNVEVKLKTFSPELQGKAVFVVVNACSSKDYLNNIVGVCFVGQDVTSQKIVMDKFINIQGDYKAIVHSPNPLIPPIFAADENTCCLEWNMAMEKLTGWSRSEVIGKMIVGEVFGSCCMLKGPDALTKFMIVLHNAIGGQDTDKFPFPFFDRNGKFVQALLTANKRVSLEGKVIGAFCFLQIPS
modifications: phytochromobilin (PΦB) bound
B3: PhyB N982 fragment (domain or fragment, Arabidopsis thaliana, UniProt P14713 1-982, looked up)
chain: MVSGVGGSGGGRGGGRGGEEEPSSSHTPNNRRGGEQAQSSGTKSLRPRSNTESMSKAIQQYTVDARLHAVFEQSGESGKSFDYSQSLKTTTYGSSVPEQQITAYLSRIQRGGYIQPFGCMIAVDESSFRIIGYSENAREMLGIMPQSVPTLEKPEILAMGTDVRSLFTSSSSILLERAFVAREITLLNPVWIHSKNTGKPFYAILHRIDVGVVIDLEPARTEDPALSIAGAVQSQKLAVRAISQLQALPGGDIKLLCDTVVESVRDLTGYDRVMVYKFHEDEHGEVVAESKRDDLEPYIGLHYPATDIPQASRFLFKQNRVRMIVDCNATPVLVVQDDRLTQSMCLVGSTLRAPHGCHSQYMANMGSIASLAMAVIINGNEDDGSNVASGRSSMRLWGLVVCHHTSSRCIPFPLRYACEFLMQAFGLQLNMELQLALQMSEKRVLRTQTLLCDMLLRDSPAGIVTQSPSIMDLVKCDGAAFLYHGKYYPLGVAPSEVQIKDVVEWLLANHADSTGLSTDSLGDAGYPGAAALGDAVCGMAVAYITKRDFLFWFRSHTAKEIKWGGAKHHPEDKDDGQRMHPRSSFQAFLEVVKSRSQPWETAEMDAIHSLQLILRDSFKESEAAMNSKVVDGVVQPCRDMAGEQGIDELGAVAREMVRLIETATVPIFAVDAGGCINGWNAKIAELTGLSVEEAMGKSLVSDLIYKENEATVNKLLSRALRGDEEKNVEVKLKTFSPELQGKAVFVVVNACSSKDYLNNIVGVCFVGQDVTSQKIVMDKFINIQGDYKAIVHSPNPLIPPIFAADENTCCLEWNMAMEKLTGWSRSEVIGKMIVGEVFGSCCMLKGPDALTKFMIVLHNAIGGQDTDKFPFPFFDRNGKFVQALLTANKRVSLEGKVIGAFCFLQIPSPELQQALAVQRRQDTECFTKAKELAYICQVIKNPLSGMRFANSLLEATDLNEDQKQLLETSVSCEKQISRIVGD
modifications: phytochromobilin (PΦB) bound
B4: Arabidopsis thaliana phytochrome B, full length (natural protein, UniProt P14713 1-1172, looked up)
chain: MVSGVGGSGGGRGGGRGGEEEPSSSHTPNNRRGGEQAQSSGTKSLRPRSNTESMSKAIQQYTVDARLHAVFEQSGESGKSFDYSQSLKTTTYGSSVPEQQITAYLSRIQRGGYIQPFGCMIAVDESSFRIIGYSENAREMLGIMPQSVPTLEKPEILAMGTDVRSLFTSSSSILLERAFVAREITLLNPVWIHSKNTGKPFYAILHRIDVGVVIDLEPARTEDPALSIAGAVQSQKLAVRAISQLQALPGGDIKLLCDTVVESVRDLTGYDRVMVYKFHEDEHGEVVAESKRDDLEPYIGLHYPATDIPQASRFLFKQNRVRMIVDCNATPVLVVQDDRLTQSMCLVGSTLRAPHGCHSQYMANMGSIASLAMAVIINGNEDDGSNVASGRSSMRLWGLVVCHHTSSRCIPFPLRYACEFLMQAFGLQLNMELQLALQMSEKRVLRTQTLLCDMLLRDSPAGIVTQSPSIMDLVKCDGAAFLYHGKYYPLGVAPSEVQIKDVVEWLLANHADSTGLSTDSLGDAGYPGAAALGDAVCGMAVAYITKRDFLFWFRSHTAKEIKWGGAKHHPEDKDDGQRMHPRSSFQAFLEVVKSRSQPWETAEMDAIHSLQLILRDSFKESEAAMNSKVVDGVVQPCRDMAGEQGIDELGAVAREMVRLIETATVPIFAVDAGGCINGWNAKIAELTGLSVEEAMGKSLVSDLIYKENEATVNKLLSRALRGDEEKNVEVKLKTFSPELQGKAVFVVVNACSSKDYLNNIVGVCFVGQDVTSQKIVMDKFINIQGDYKAIVHSPNPLIPPIFAADENTCCLEWNMAMEKLTGWSRSEVIGKMIVGEVFGSCCMLKGPDALTKFMIVLHNAIGGQDTDKFPFPFFDRNGKFVQALLTANKRVSLEGKVIGAFCFLQIPSPELQQALAVQRRQDTECFTKAKELAYICQVIKNPLSGMRFANSLLEATDLNEDQKQLLETSVSCEKQISRIVGDMDLESIEDGSFVLKREEFFLGSVINAIVSQAMFLLRDRGLQLIRDIPEEIKSIEVFGDQIRIQQLLAEFLLSIIRYAPSQEWVEIHLSQLSKQMADGFAAIRTEFRMACPGEGLPPELVRDMFHSSRWTSPEGLGLSVCRKILKLMNGEVQYIRESERSYFLIILELPVPRKRPLSTASGSGDMMLMMPY
modifications: phytochromobilin (PΦB) covalently linked to Cys357

Tests used:
[1] = molecular target: the molecule itself; test: thermal reversion rate
[2] = molecular target: the molecule itself; test: SEC

Protein	binding result [2]	other results
B1		Kd [1]: ~26 nM
B2	binds	
B3	binds	
B4		stoichiometry N [2]: 2
